Measured values from US20230406950A1 (LYVGEN BIOPHARMA, published 2023).

Columns and labels:
[1] = target: T1, human CD137 ECD protein (His tag) (human, UniProt Q07011 24-186); experiment: bridging ELISA: human CD137 ECD (His tag) coated, antibody titrated, then human PD-1 ECD (mouse IgG2a Fc tag), HRP anti-mouse IgG2a Fc; A450-A620
T1 construct: extracellular domain; also called recombinant human CD137; not shown: His tag
Method: Exemplary anti-PD-1/CD137 bi-specific antibodies were analyzed by ELISA for their simultaneous binding to recombinant human PD-1 and human CD137. Briefly, human CD137 ECD protein (His tag) was diluted and coated onto an ELISA plate with a volume of 100 μL/well by incubation at 4° C. overnight. The next day, the plate was blocked with PBST-BSA buffer, then serially diluted samples of anti-PD-1/CD137 bi-specific antibodies were pipetted into appropriate wells at 50 μL/well, and the plate was incubated for 1 hour followed by washing. The extracellular domain (ECD) of human PD-1 protein (mouse IgG2a Fc tag) was added into the plate at 50 μL/well. After 1-hour incubation at room temperature, HRP-conjugated anti-Mouse IgG, Fc G2a specific antibody was added into the plate at 100 μL/well. The plate was incubated for 1 hour at room temperature followed by washing. TMB substrate solution was added at 100 μL/well and the color development was stopped by adding 100 uL/well Stop Solution (2N H₂SO₄). Absorbance at 450 nm and 620 nm was read by Tecan F200 Pro plate reader. GraphPad 7.0, “[Agonist] vs. response—Variable slope (four parameters)” was used to plot the binding data and calculate binding EC50 values.

[2] = target: T2, human PD-1 expressed on cells (human, UniProt Q15116 25-288); experiment: flow cytometry (FACS), MFI, CHO cells expressing human PD-1
T2 construct: whole, on cells; also called human PD-1 over-expressed on the CHO cells; Jurkat/NFkB-Luci/PD-1 cells
T2 sequence (Q15116 25-288): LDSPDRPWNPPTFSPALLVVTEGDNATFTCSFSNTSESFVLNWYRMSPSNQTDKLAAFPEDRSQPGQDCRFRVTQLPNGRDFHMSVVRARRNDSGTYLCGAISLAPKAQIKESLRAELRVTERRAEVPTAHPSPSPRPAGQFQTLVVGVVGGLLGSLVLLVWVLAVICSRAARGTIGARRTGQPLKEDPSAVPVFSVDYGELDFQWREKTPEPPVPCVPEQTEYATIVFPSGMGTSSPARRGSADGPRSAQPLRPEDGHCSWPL
Method: (§1) Exemplary anti-PD-1/CD137 bi-specific antibodies were analyzed by FACS for their binding properties to human PD-1 and/or human CD137 expressed on CHO cells. Briefly, cultured cells were harvested, counted and cell viability was evaluated using the Trypan Blue exclusion method. Viable cells were then adjusted to 2×10⁶ cells per mL in PBS containing 2% BSA. 100 μL of this cell suspension were further aliquoted per well into a V-bottom 96-well plate. […] After incubation for 2 hours at 4° C., cells were centrifuged (3 min, 1000× g), washed with 250 μL/well BSA-containing FACS Stain Buffer, resuspended and incubated for an additional 1 hour at 4° C. with 100 μL/well fluorochrome-conjugated anti-IgG antibody for detection of the bisepecific antibody. Cells were then washed with 250 μL/well BSA-containing FACS Stain Buffer, resuspended in 100 μL/well FACS Stain Buffer, acquired and analyzed using a FACS machine. Binding of the bispecific antibodies to human PD-1 or human CD137 expressing CHO cells were evaluated and the mean fluorescence intensity is plotted in histograms or dot plots.

[3] = target: T3, human CD137 expressed on cells (human, UniProt Q07011 24-255); experiment: flow cytometry (FACS), MFI, CHO cells expressing human CD137
T3 construct: whole, on cells; also called 4-1BB; TNFRSF9
T3 sequence (Q07011 24-255): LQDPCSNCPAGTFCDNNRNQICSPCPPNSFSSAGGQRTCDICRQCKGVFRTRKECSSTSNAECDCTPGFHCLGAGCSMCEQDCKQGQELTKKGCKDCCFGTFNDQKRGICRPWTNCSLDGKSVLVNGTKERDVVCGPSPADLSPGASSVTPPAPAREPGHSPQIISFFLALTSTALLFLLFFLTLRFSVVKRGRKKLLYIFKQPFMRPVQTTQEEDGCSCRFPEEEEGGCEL
In short: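 Viable CHO cells, 2×10⁶ cells/mL in PBS with 2% BSA, incubated with bispecific antibodies for 2 h at 4° C. Bound antibody detected with fluorochrome-conjugated anti-IgG, 1 h at 4° C. Read-out is mean fluorescence intensity by flow cytometry.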

[4] = target: T3, human CD137 expressed on cells; experiment: FACS on CHO cells expressing human CD137 (MFI)
Method: as §1, with “Anti-CD40/CD137” for “Exemplary anti-PD-1/CD137”, “CD40” for “PD-1”, “1000×g),” for “1000× g),”

[5] = target: T4, human CD40 expressed on CHO cells (human, UniProt P25942 21-277); experiment: FACS on CHO cells expressing human CD40 (MFI)
T4 construct: whole, on cells
T4 sequence (P25942 21-277): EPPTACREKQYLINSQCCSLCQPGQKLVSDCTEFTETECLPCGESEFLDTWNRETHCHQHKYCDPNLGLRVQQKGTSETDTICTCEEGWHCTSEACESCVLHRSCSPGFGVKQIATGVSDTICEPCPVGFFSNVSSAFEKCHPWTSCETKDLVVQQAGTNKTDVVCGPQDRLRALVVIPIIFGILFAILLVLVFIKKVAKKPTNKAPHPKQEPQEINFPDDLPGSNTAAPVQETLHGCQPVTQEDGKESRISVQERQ
Method: as §1, with “Anti-CD40/CD137” for “Exemplary anti-PD-1/CD137”, “CD40” for “PD-1”, “1000×g),” for “1000× g),”

Row | Binder | EC50 (read off the curve) [1] | EC50 (read off the curve) [2] | EC50 (read off the curve) [3] | EC50 (read off the curve) [4] | binding result [5]
1 | Ly458 (bispecific antibody, human IgG1, kappa, Anti-PD-1/CD137: Ly516 heavy chain; Ly516 light chain fused to Ly1630 scFv (VL-VH)) heavy: QVTLKESGPALVKPTQTLTLTCTFSGFSLSTSGTCVSWIRQPPGKALEWLATICWEDSKGYNPSLKSRLTISKDTSKNQAVLTMTNMDPVDTATYYCARREDSGYFWFPYWGQGTLVTVSSASTKGPSVFPLAPSSKSTSGGTAALGCLVKDYFPEPVTVSWNSGALTSGVHTFPAVLQSSGLYSLSSVVTVPSSSLGTQTYICNVNHKPSNTKVDKKVEPKSCDKTHTCPPCPAPELLGPSVFLFPPKPKDTLMISRTPEVTCVVVDVSHEDPEVKFNWYVDGVEVHNAKTKPREEQYNSTYRVVSVLTVLHQDWLNGKEYKCKVSNKALPAPIEKTISKAKGQPREPQVYTLPPSREEMTKNQVSLTCLVKGFYPSDIAVEWESNGQPENNYKTTPPVLDSDGSFFLYSKLTVDKSRWQQGNVFSCSVMHEALHNHYTQKSLSLSPGK light: NIQMTQSPSSLSASVGDRVTITCKAGQNVNNYLAWYQQKPGKAPKVLIFNANSLQTGVPSRFSGSGSGTDFTLTISSLQPEDFATYYCQQYNSWPTFGGGTKVEIKRTVAAPSVFIFPPSDEQLKSGTASVVCLLNNFYPREAKVQWKVDNALQSGNSQESVTEQDSKDSTYSLSSTLTLSKADYEKHKVYACEVTHQGLSSPVTKSFNRGECGGGGSGGGGSGGGGSGGGGSDIQMTQSPSSLSASVGDRVTITCRASQDIRSNLNWYQQKPGGAVKLLIYYTSRLHSGVPSRFSGSGSGTDYTLTISSLQPEDFATYFCQQSEKLPRTFGGGTKVEIRGGGGSGGGGSGGGGSGGGGSQVQLVQSGAEVKKPGASVKVSCKASGYTFAGFEMHWVRQAPGQGLEWMGAIDPKTGGTDYNQKFKDRVTMTRDTSISTAYMELSRLRSDDTAVYYCARDLGYFDVWGQGTLVTVSS | ~20 ng/mL | ~0.2 µg/mL | ~0.2 µg/mL |  | 
2 | Ly459 (bispecific antibody, human IgG1, kappa, Anti-PD-1/CD137: Ly516 heavy chain; Ly516 light chain fused to Ly1630 scFv (VH-VL)) heavy: QVTLKESGPALVKPTQTLTLTCTFSGFSLSTSGTCVSWIRQPPGKALEWLATICWEDSKGYNPSLKSRLTISKDTSKNQAVLTMTNMDPVDTATYYCARREDSGYFWFPYWGQGTLVTVSSASTKGPSVFPLAPSSKSTSGGTAALGCLVKDYFPEPVTVSWNSGALTSGVHTFPAVLQSSGLYSLSSVVTVPSSSLGTQTYICNVNHKPSNTKVDKKVEPKSCDKTHTCPPCPAPELLGPSVFLFPPKPKDTLMISRTPEVTCVVVDVSHEDPEVKFNWYVDGVEVHNAKTKPREEQYNSTYRVVSVLTVLHQDWLNGKEYKCKVSNKALPAPIEKTISKAKGQPREPQVYTLPPSREEMTKNQVSLTCLVKGFYPSDIAVEWESNGQPENNYKTTPPVLDSDGSFFLYSKLTVDKSRWQQGNVFSCSVMHEALHNHYTQKSLSLSPGK light: NIQMTQSPSSLSASVGDRVTITCKAGQNVNNYLAWYQQKPGKAPKVLIFNANSLQTGVPSRFSGSGSGTDFTLTISSLQPEDFATYYCQQYNSWPTFGGGTKVEIKRTVAAPSVFIFPPSDEQLKSGTASVVCLLNNFYPREAKVQWKVDNALQSGNSQESVTEQDSKDSTYSLSSTLTLSKADYEKHKVYACEVTHQGLSSPVTKSFNRGECGGGGSGGGGSGGGGSGGGGSQVQLVQSGAEVKKPGASVKVSCKASGYTFAGFEMHWVRQAPGQGLEWMGAIDPKTGGTDYNQKFKDRVTMTRDTSISTAYMELSRLRSDDTAVYYCARDLGYFDVWGQGTLVTVSSGGGGSGGGGSGGGGSGGGGSDIQMTQSPSSLSASVGDRVTITCRASQDIRSNLNWYQQKPGGAVKLLIYYTSRLHSGVPSRFSGSGSGTDYTLTISSLQPEDFATYFCQQSEKLPRTFGGGTKVEIR | ~20 ng/mL | ~0.2 µg/mL | ~0.2 µg/mL |  | 
3 | Ly744 (bispecific antibody, human IgG1, kappa, Anti-CD40/CD137: Ly253-derived heavy chain; Ly253 light chain fused to Ly1630 scFv (VL-VH)) heavy: not shown light: DIQMTQSPSSVSASVGDRVTITCRASQGIYSWLAWYQQKPGKAPNLLIYTASTLQSGVPSRFSGSGSGTDFTLTISSLQPEDFATYYCQQANIFPLTFGGGTKVEIKRTVAAPSVFIFPPSDEQLKSGTASVVCLLNNFYPREAKVQWKVDNALQSGNSQESVTEQDSKDSTYSLSSTLTLSKADYEKHKVYACEVTHQGLSSPVTKSFNRGECGGGGSGGGGSGGGGSGGGGSDIQMTQSPSSLSASVGDRVTITCRASQDIRSNLNWYQQKPGGAVKLLIYYTSRLHSGVPSRFSGSGSGTDYTLTISSLQPEDFATYFCQQSEKLPRTFGGGTKVEIRGGGGSGGGGSGGGGSGGGGSQVQLVQSGAEVKKPGASVKVSCKASGYTFAGFEMHWVRQAPGQGLEWMGAIDPKTGGTDYNQKFKDRVTMTRDTSISTAYMELSRLRSDDTAVYYCARDLGYFDVWGQGTLVTVSS |  |  |  | ~0.1 µg/mL | binds
4 | Ly742 (bispecific antibody, human IgG1, kappa, Anti-CD40/CD137: Ly253-derived heavy chain fused to Ly1630 scFv (VL-VH); Ly253 light chain) heavy: not shown light: DIQMTQSPSSVSASVGDRVTITCRASQGIYSWLAWYQQKPGKAPNLLIYTASTLQSGVPSRFSGSGSGTDFTLTISSLQPEDFATYYCQQANIFPLTFGGGTKVEIKRTVAAPSVFIFPPSDEQLKSGTASVVCLLNNFYPREAKVQWKVDNALQSGNSQESVTEQDSKDSTYSLSSTLTLSKADYEKHKVYACEVTHQGLSSPVTKSFNRGEC |  |  |  | ~0.07 µg/mL | binds
5 | Ly743 (bispecific antibody, human IgG1, kappa, Anti-CD40/CD137: Ly253-derived heavy chain fused to Ly1630 scFv (VH-VL); Ly253 light chain) heavy: not shown light: DIQMTQSPSSVSASVGDRVTITCRASQGIYSWLAWYQQKPGKAPNLLIYTASTLQSGVPSRFSGSGSGTDFTLTISSLQPEDFATYYCQQANIFPLTFGGGTKVEIKRTVAAPSVFIFPPSDEQLKSGTASVVCLLNNFYPREAKVQWKVDNALQSGNSQESVTEQDSKDSTYSLSSTLTLSKADYEKHKVYACEVTHQGLSSPVTKSFNRGEC |  |  |  | ~0.1 µg/mL | binds
6 | Ly740 (bispecific antibody, human IgG1, kappa, Anti-CD40/CD137: Ly1630 heavy chain; Ly1630 light chain fused to Ly253 scFv (VL-VH)) heavy: QVQLVQSGAEVKKPGASVKVSCKASGYTFAGFEMHWVRQAPGQGLEWMGAIDPKTGGTDYNQKFKDRVTMTRDTSISTAYMELSRLRSDDTAVYYCARDLGYFDVWGQGTLVTVSSASTKGPSVFPLAPSSKSTSGGTAALGCLVKDYFPEPVTVSWNSGALTSGVHTFPAVLQSSGLYSLSSVVTVPSSSLGTQTYICNVNHKPSNTKVDKKVEPKSCDKTHTCPPCPAPELLGPSVFLFPPKPKDTLMISRTPEVTCVVVDVSHEDPEVKFNWYVDGVEVHNAKTKPREEQYNSTYRVVSVLTVLHQDWLNGKEYKCKVSNKALPAPIEKTISKAKGQPREPQVYTLPPSREEMTKNQVSLTCLVKGFYPSDIAVEWESNGQPENNYKTTPPVLDSDGSFFLYSKLTVDKSRWQQGNVFSCSVMHEALHNHYTQKSLSLSPGK light: not shown |  |  |  | ~0.04 µg/mL | binds
7 | Ly741 (bispecific antibody, human IgG1, kappa, Anti-CD40/CD137: Ly1630 heavy chain; Ly1630 light chain fused to Ly253 scFv (VH-VL)) heavy: QVQLVQSGAEVKKPGASVKVSCKASGYTFAGFEMHWVRQAPGQGLEWMGAIDPKTGGTDYNQKFKDRVTMTRDTSISTAYMELSRLRSDDTAVYYCARDLGYFDVWGQGTLVTVSSASTKGPSVFPLAPSSKSTSGGTAALGCLVKDYFPEPVTVSWNSGALTSGVHTFPAVLQSSGLYSLSSVVTVPSSSLGTQTYICNVNHKPSNTKVDKKVEPKSCDKTHTCPPCPAPELLGPSVFLFPPKPKDTLMISRTPEVTCVVVDVSHEDPEVKFNWYVDGVEVHNAKTKPREEQYNSTYRVVSVLTVLHQDWLNGKEYKCKVSNKALPAPIEKTISKAKGQPREPQVYTLPPSREEMTKNQVSLTCLVKGFYPSDIAVEWESNGQPENNYKTTPPVLDSDGSFFLYSKLTVDKSRWQQGNVFSCSVMHEALHNHYTQKSLSLSPGK light: not shown |  |  |  | ~0.04 µg/mL | binds
